Source: US10662235B2, “Cysteine engineered fibronectin type III domain binding molecules” (Janssen Biotech, Inc., priority 2016, dated 2020)
Numbering of substitutions follows the chain as printed. Names and notes keep the numbering of the source.

B1: N6C (protein)
chain: LPAPKCLVVSEVTEDSARLSWDDPWAFYESFLIQYQESEKVGEAIVLTVPGSERSYDLTGLKPGTEYTVSIYGVHNVYKDTNMRGLPLSAIFTT
B2: T93C (protein)
chain 1: MLPAPKNLVVSEVTEDSARLSWDDPWAFYESFLIQYQESEKVGEAIVLTVPGSERSYDLTGLKPGTEYTVSIYGVHNVYKDTNMRGLPLSAIFCT
chain 2: B1 chain with C6N, T93C
modifications: EGFR binding FN3 domain; EGFR-binding FN3 domain
B3: E53C (protein)
chain: B2 chain 1 with E54C, C94T
modifications: EGFR binding FN3 domain
B4: V8C (protein)
chain 1: B2 chain 1 with V9C, C94T
chain 2: B1 chain with C6N, V8C
modifications: EGFR binding FN3 domain; EGFR-binding FN3 domain
B5: S10C (protein)
chain 1: B2 chain 1 with S11C, C94T
chain 2: B1 chain with C6N, S10C
modifications: EGFR binding FN3 domain; EGFR-binding FN3 domain
B6: S38C (protein)
chain 1: B2 chain 1 with S39C, C94T
chain 2: B1 chain with C6N, S38C
modifications: EGFR binding FN3 domain; EGFR-binding FN3 domain
B7: V41C (protein)
chain 1: B2 chain 1 with V42C, C94T
chain 2: B1 chain with C6N, V41C
modifications: EGFR binding FN3 domain; EGFR-binding FN3 domain
B8: R54C (protein)
chain 1: B2 chain 1 with R55C, C94T
chain 2: B1 chain with C6N, R54C
modifications: EGFR binding FN3 domain; EGFR-binding FN3 domain
B9: T59C (protein)
chain 1: B2 chain 1 with T60C, C94T
chain 2: B1 chain with C6N, T59C
modifications: EGFR binding FN3 domain; EGFR-binding FN3 domain
B10: S30C (protein)
chain 1: B2 chain 1 with S31C, C94T
chain 2: B1 chain with C6N, S30C
modifications: EGFR binding FN3 domain; EGFR-binding FN3 domain
B11: T48C (protein)
chain 1: B2 chain 1 with T49C, C94T
chain 2: B1 chain with C6N, T48C
modifications: EGFR binding FN3 domain; EGFR-binding FN3 domain
B12: S16C (protein)
chain 1: B2 chain 1 with S17C, C94T
chain 2: B1 chain with C6N, S16C
modifications: EGFR binding FN3 domain; EGFR-binding FN3 domain
B13: S89C (protein)
chain 1: B2 chain 1 with S90C, C94T
chain 2: B1 chain with C6N, S89C
modifications: EGFR binding FN3 domain; EGFR-binding FN3 domain
B14: I91C (protein)
chain: B1 chain with C6N, I91C
B15: S70C (protein)
chain 1: B2 chain 1 with S71C, C94T
chain 2: B1 chain with C6N, S70C
modifications: EGFR binding FN3 domain; EGFR-binding FN3 domain
B16: S20C (protein)
chain 1: B2 chain 1 with S21C, C94T
chain 2: B1 chain with C6N, S20C
modifications: EGFR binding FN3 domain; EGFR-binding FN3 domain
B17: ECB18: bispecific P54AR4-83v2 / P114AR5P74-A5 linked to albumin binding domain, SEQ ID 118 (protein)
chain: MLPAPKNLVVSEVTEDSARLSWDDPWAFYESFLIQYQESEKVGEAIVLTVPGSERSYDLTGLKPGTEYTVSIYGVHNVYKDTNMRGLPLSAIFTTAPAPAPAPAPLPAPKNLVVSRVTEDSARLSWTAPDAAFDSFWIRYDEVVVGGEAIVLTVPGSERSYDLTGLKPGTEYYVNILGVKGGSISVPLSAIFTTAPAPAPAPAPLAEAKVLANRELDKYGVSDYYKNLINNAKTVEGVKALLDEILAALP
modifications: Bispecific EGFR/c-Met binding molecule
B18: ECB39: bispecific P53A1R5-17v2 / P114AR7P94-A3 linked to albumin binding domain, SEQ ID 121 (protein)
chain: MLPAPKNLVVSEVTEDSARLSWADPHGFYDSFLIQYQESEKVGEAIVLTVPGSERSYDLTGLKPGTEYTVSIYGVHNVYKDTNMRGLPLSAIFTTAPAPAPAPAPLPAPKNLVVSRVTEDSARLSWTAPDAAFDSFWIRYFEFLGSGEAIVLTVPGSERSYDLTGLKPGTEYVVNIMGVKGGKISPPLSAIFTTAPAPAPAPAPLAEAKVLANRELDKYGVSDYYKNLINNAKTVEGVKALLDEILAALP
modifications: Bispecific EGFR/c-Met binding molecule
B19: P114AR5P74-A5: c-Met-binding FN3 domain, SEQ ID NO: 32 (protein)
chain: LPAPKNLVVSRVTEDSARLSWTAPDAAFDSFWIRYDEVVVGGEAIVLTVPGSERSYDLTGLKPGTEYYVNILGVKGGSISVPLSAIFTT
modifications: c-Met binding FN3 domain
B20: P114AR7P92-F6: c-Met-binding FN3 domain, SEQ ID NO: 35 (protein)
chain: B19 chain with D36F, V38F, V39L, V40G, G41S, Y68V, S78G, I79L
modifications: c-Met binding FN3 domain

system: H1573 cells; test: Cytotoxicity assay of cytotoxin conjugates in H1573 cells; assay type: cell-based, human; conditions: MMAF conjugates
Method: Cell killing was assessed by measuring viability of the EGFR-overexpressing human tumor cell line H1573 following exposure to the cysteine variant-cytotoxin conjugates. […] Cells were allowed to attach overnight at 37° C. in a humidified 5% CO2 atmosphere. Medium was aspirated from 96-well plate and cells were treated with 50 uL of fresh media and 50 uL of 2× inhibitor made up in fresh media. Cell viability was determined by an endpoint assay with Cell TiterGlo (Promega) at 70 hours. IC50 values were determined by fitting data to the equation for a sigmoidal dose response with variable slope using GraphPad Prism 5 (GraphPad Software).
Conjugates consisting of ECB147 cysteine variants, 83v2-cys, or Tencon-cys linked to a cytotoxic tubulin inhibitor from the auristatin family (FIG. 2) were tested for target-dependent cytotoxicity in cancer cells. The inhibitor was linked to the cysteine-containing protein via a non-cleavable PEG4 linker or an enzyme-cleavable valine-citrulline or valine-lysine linker.

Molecule	IC50 relative to parent conjugate
B1	over two times more potent than the parent
B2	over two times more potent than the parent
B3	over two times more potent than the parent

same assay, conditions: MMAF conjugates, Cell TiterGlo at 70 hours, read-out: IC50 (cell killing)

Molecule	IC50
B1	0.16 nM
B4	0.35 nM
B5	0.43 nM
B6	0.76 nM
B7	1.13 nM
B8	0.37 nM
B2	0.2 nM
B9	0.44 nM
B10	0.78 nM
B11	0.59 nM
B12	0.75 nM
B13	0.94 nM
B14	0.54 nM
B15	1.14 nM
B16	0.36 nM

system: H292-HGF tumor xenografts; test: Tumor efficacy study with bispecific EGFR/c-Met molecules (tumor growth inhibition); assay type: in vivo, SCID Beige mice; conditions: 25 mg/kg three times per week (FIG. 10)
Method: One week after implantation, mice were stratified into groups with equivalent tumor volumes (mean tumor volume=77.9+/−1.7 mm^3). Mice were dosed three times per week with the bispecific molecules and tumor volumes were recorded twice weekly.

Molecule	tumor growth inhibition (TGI)
B17	delay in tumor growth
B18	showed the most efficacy

system: not listed separately; test: Thermal stability by differential scanning calorimetry; assay type: physicochemical; conditions: c-Met-binding FN3 domains, DSC in PBS
Method: The thermal stability of cysteine-NEM conjugates was assessed by differential scanning calorimetry (DSC). The only the conjugates tested were those determined to express at high levels, conjugate efficiently, and retain EGFR binding. Additionally, cysteine variants within the BC and FG loops were excluded. Stability data was generated by heating a 400 μL aliquot of the variant from 25° C. to 100° C. at a scan rate of 1° C. per minute in a VP-DSC instrument (MicroCal). A second identical scan was completed on the sample in order to assess the reversibility of thermal folding/unfolding. Data was fitted to a 2-state unfolding model in order to calculate the melting temperature (Table 10).
Thermal Stability of c-Met-Binding FN3 Domains Differential scanning calorimetry in PBS was used to assess the stability of each FN3 domain.

Molecule	Thermal Stability (Tm, C.)
B19	74.1 C.
B20	76.8 C.

same assay, conditions: cysteine-NEM conjugates, DSC 25-100° C., 1° C. per minute

Molecule	First Scan Tm
B1	71 °C
B4	69 °C
B5	68 °C
B6	65 °C
B7	71 °C
B8	65 °C
B2	69 °C
B9	67 °C
B10	71 °C
B11	72 °C
B12	68 °C
B13	72 °C
B14	70 °C
B15	73 °C
B16	70 °C

same assay, conditions: cysteine-NEM conjugates, second identical scan

Molecule	Second Scan Tm
B1	70 °C
B4	69 °C
B5	68 °C
B6	65 °C
B7	71 °C
B8	65 °C
B2	69 °C
B9	67 °C
B10	71 °C
B11	72 °C
B12	68 °C
B13	71 °C
B14	69 °C
B15	72 °C
B16	70 °C

system: not listed separately; test: Analytical size exclusion chromatography (aggregation state, percent monomer); assay type: physicochemical; conditions: NEM-conjugated cysteine variants; SEC, Abs280
Method: Size exclusion chromatography was used to determine the aggregation state of the FN3 domains binding EGFR. Aliquots (10 μL) of each purified FN3 domain were injected onto a Superdex 75 5/150 column (GE Healthcare) at a flow rate of 0.3 mL/min in a mobile phase of PBS pH 7.4. Elution from the column was monitored by absorbance at 280 nm.
The percent monomer for each protein was determined by integrating the Abs280 signal and comparing the peak in the monomer region (5.5-6 minutes) to the peaks in the oligomer region (4-5.3 minutes).

Molecule	Percent monomer
B1	94%
B4	91%
B5	80%
B6	93%
B7	98%
B8	96%
B2	100%
B9	100%
B10	94%
B11	90%
B12	75%
B13	96%
B14	100%
B15	100%
B16	94%
